Measured values taken from article PMC7641761.
Residue numbers refer to the chain shown, from its start.

Tests used:
[1] = target: T1, Ku70/Ku80 heterodimer FL (baculovirus) (human, UniProt P12956;P13010 1-609;1-718); test: MST; Hill 1.0; MST: 50 mM Tris pH 8.0, 50 mM NaCl, 1 mM DTT, 24 C, 40 nM FAM-RNA; EMSA: 25 mM Hepes-KOH pH 7.5, 50 mM NaCl, 1 mM DTT, 1 mM EDTA, 10% glycerol, 0.1 uM BSA, room temperature, 25 min; settings: protein: recombinant; tags: His (Ku80); copies: 1;1; label: 5'-FAM stated for MST RNAs
T1 sequence (P12956 whole entry, chain 1 of 2): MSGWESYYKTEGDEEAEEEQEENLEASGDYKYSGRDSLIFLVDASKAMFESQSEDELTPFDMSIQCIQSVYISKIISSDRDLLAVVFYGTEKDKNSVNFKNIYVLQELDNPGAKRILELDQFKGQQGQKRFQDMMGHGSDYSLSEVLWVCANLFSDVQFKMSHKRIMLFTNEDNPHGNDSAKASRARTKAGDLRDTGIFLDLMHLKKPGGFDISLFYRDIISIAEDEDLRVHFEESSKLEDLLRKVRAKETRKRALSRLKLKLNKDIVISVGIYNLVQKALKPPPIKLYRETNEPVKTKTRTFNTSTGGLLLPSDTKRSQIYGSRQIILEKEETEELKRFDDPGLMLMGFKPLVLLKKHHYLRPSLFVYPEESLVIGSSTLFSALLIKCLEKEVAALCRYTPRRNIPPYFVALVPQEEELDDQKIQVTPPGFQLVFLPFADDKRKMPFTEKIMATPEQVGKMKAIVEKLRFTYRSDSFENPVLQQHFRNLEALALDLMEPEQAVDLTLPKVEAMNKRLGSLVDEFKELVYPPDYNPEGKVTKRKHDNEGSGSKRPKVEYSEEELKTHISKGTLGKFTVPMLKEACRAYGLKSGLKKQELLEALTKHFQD
T1 sequence (P13010 1-718, chain 2 of 2): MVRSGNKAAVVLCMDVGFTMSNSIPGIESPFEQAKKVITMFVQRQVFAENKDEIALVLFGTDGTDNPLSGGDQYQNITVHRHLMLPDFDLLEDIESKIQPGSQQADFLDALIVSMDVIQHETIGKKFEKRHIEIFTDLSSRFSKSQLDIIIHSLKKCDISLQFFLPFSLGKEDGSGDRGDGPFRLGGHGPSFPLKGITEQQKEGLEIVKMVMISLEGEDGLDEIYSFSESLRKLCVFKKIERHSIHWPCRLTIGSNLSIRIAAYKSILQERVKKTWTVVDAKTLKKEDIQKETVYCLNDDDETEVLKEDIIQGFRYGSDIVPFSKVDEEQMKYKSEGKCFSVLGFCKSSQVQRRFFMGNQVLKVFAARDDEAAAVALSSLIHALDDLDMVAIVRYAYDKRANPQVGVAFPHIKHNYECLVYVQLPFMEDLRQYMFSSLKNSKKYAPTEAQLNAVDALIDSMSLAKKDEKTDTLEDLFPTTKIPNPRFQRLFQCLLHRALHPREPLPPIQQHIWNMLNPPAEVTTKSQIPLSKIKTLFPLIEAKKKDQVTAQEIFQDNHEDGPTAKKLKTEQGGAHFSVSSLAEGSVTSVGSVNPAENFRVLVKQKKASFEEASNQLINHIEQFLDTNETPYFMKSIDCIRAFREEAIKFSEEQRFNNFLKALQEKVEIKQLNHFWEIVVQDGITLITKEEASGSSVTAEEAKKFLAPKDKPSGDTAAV

[2] = target: T1, Ku70/Ku80 heterodimer FL (baculovirus); test: MST; MST: 50 mM Tris pH 8.0, 50 mM NaCl, 1 mM DTT, 24 C, 40 nM FAM-RNA; EMSA: 25 mM Hepes-KOH pH 7.5, 50 mM NaCl, 1 mM DTT, 1 mM EDTA, 10% glycerol, 0.1 uM BSA, room temperature, 25 min; settings: protein: recombinant, tags: His (Ku80), copies: 1;1, label: 5'-FAM
[3] = target: T2, Ku70/Ku80 heterodimer FL (baculovirus);XLF (human;human?, UniProt P12956;P13010;Q9H9Q4 1-609;1-718;1-299, |); test: EMSA; supershift; MST: 50 mM Tris pH 8.0, 50 mM NaCl, 1 mM DTT, 24 C, 40 nM FAM-RNA; EMSA: 25 mM Hepes-KOH pH 7.5, 50 mM NaCl, 1 mM DTT, 1 mM EDTA, 10% glycerol, 0.1 uM BSA, room temperature, 25 min; settings: protein: recombinant;recombinant, tags: His (Ku80);, copies: 1;1;2, label: 5'-FAM
T2 sequence (P12956 whole entry, chain 1 of 3): as the sequence (P12956 whole entry, chain 1 of 2) above
T2 sequence (P13010 1-718, chain 2 of 3): as the sequence (P13010 1-718, chain 2 of 2) above
T2 sequence (Q9H9Q4 whole entry, chain 3 of 3): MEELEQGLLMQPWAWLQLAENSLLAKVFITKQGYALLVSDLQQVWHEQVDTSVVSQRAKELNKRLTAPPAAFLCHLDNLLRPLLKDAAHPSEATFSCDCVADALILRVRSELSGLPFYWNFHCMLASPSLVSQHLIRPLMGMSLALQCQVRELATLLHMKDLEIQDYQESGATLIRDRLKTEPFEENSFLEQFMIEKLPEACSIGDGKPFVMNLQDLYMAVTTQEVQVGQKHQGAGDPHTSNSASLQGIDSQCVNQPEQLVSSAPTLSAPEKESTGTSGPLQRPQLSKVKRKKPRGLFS

Ku dCTR = Ku dCTR (human, UniProt P12956;P13010 1-609;1-569); test: MST; MST: 50 mM Tris pH 8.0, 50 mM NaCl, 1 mM DTT, 24 C, 40 nM FAM-RNA; EMSA: 25 mM Hepes-KOH pH 7.5, 50 mM NaCl, 1 mM DTT, 1 mM EDTA, 10% glycerol, 0.1 uM BSA, room temperature, 25 min; settings: protein: recombinant; copies: 1;1; label: 5'-FAM; hairpin with bulge
Chain of Ku dCTR (P12956 whole entry, chain 1 of 2): as the sequence (P12956 whole entry, chain 1 of 2) above
Chain of Ku dCTR (P13010 1-569, chain 2 of 2): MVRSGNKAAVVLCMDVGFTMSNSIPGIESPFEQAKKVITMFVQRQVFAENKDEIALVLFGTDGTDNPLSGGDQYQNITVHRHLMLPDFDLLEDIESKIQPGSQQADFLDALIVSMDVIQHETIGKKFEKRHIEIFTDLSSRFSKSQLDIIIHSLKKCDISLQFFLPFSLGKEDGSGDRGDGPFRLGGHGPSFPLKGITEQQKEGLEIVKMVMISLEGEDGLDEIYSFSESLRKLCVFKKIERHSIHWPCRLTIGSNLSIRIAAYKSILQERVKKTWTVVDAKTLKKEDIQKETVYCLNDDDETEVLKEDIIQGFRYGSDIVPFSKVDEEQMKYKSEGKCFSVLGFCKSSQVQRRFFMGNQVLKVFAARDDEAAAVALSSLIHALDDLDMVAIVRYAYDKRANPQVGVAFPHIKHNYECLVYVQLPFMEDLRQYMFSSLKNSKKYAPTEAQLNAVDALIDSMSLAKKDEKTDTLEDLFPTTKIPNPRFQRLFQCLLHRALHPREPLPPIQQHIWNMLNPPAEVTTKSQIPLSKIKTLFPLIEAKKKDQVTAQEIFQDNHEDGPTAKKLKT

[4] = target: T1, Ku70/Ku80 heterodimer FL (baculovirus); test: MST; Hill 1.75; MST: 50 mM Tris pH 8.0, 50 mM NaCl, 1 mM DTT, 24 C, 40 nM FAM-RNA; EMSA: 25 mM Hepes-KOH pH 7.5, 50 mM NaCl, 1 mM DTT, 1 mM EDTA, 10% glycerol, 0.1 uM BSA, room temperature, 25 min; settings: protein: recombinant; tags: His (Ku80); copies: 1;1; label: 5'-FAM; blunt
Ku5D = Ku5D (human, UniProt P12956;P13010 1-609;1-718, T305D;S306D;T307D;S314D;T316D); test: MST; 20-fold weaker than WT; MST: 50 mM Tris pH 8.0, 50 mM NaCl, 1 mM DTT, 24 C, 40 nM FAM-RNA; EMSA: 25 mM Hepes-KOH pH 7.5, 50 mM NaCl, 1 mM DTT, 1 mM EDTA, 10% glycerol, 0.1 uM BSA, room temperature, 25 min; settings: protein: recombinant; copies: 1;1; label: 5'-FAM on strand 1; fork; 42-mer/29-mer
Chain of Ku5D (P12956 whole entry T305D/S306D/T307D/S314D/T316D, chain 1 of 2): as the sequence (P12956 whole entry, chain 1 of 2) above, with T305D, S306D, T307D, S314D, T316D counted along it
Chain of Ku5D (P13010 1-718, chain 2 of 2): as the sequence (P13010 1-718, chain 2 of 2) above

[5] = target: T1, Ku70/Ku80 heterodimer FL (baculovirus); test: EMSA; Ku preparation not stated; MST: 50 mM Tris pH 8.0, 50 mM NaCl, 1 mM DTT, 24 C, 40 nM FAM-RNA; EMSA: 25 mM Hepes-KOH pH 7.5, 50 mM NaCl, 1 mM DTT, 1 mM EDTA, 10% glycerol, 0.1 uM BSA, room temperature, 25 min; settings: protein: recombinant; tags: His (Ku80); copies: 1;1; label: 5'-FAM; G4
[6] = target: T2, Ku70/Ku80 heterodimer FL …; test: EMSA; supershift; Ku preparation not stated; MST: 50 mM Tris pH 8.0, 50 mM NaCl, 1 mM DTT, 24 C, 40 nM FAM-RNA; EMSA: 25 mM Hepes-KOH pH 7.5, 50 mM NaCl, 1 mM DTT, 1 mM EDTA, 10% glycerol, 0.1 uM BSA, room temperature, 25 min; settings: protein: recombinant;recombinant; tags: His (Ku80);; copies: 1;1;2; label: 3'-FAM on lower strand; blunt
[7] = target: Ku70/Ku80 heterodimer FL (baculovirus);PAXX (human;human?, UniProt P12956;P13010;Q9BUH6 1-609;1-718;1-204, |); test: EMSA; supershift; MST: 50 mM Tris pH 8.0, 50 mM NaCl, 1 mM DTT, 24 C, 40 nM FAM-RNA; EMSA: 25 mM Hepes-KOH pH 7.5, 50 mM NaCl, 1 mM DTT, 1 mM EDTA, 10% glycerol, 0.1 uM BSA, room temperature, 25 min; settings: protein: recombinant;recombinant; tags: His (Ku80);GST cleaved; copies: 1;1;2; label: 3'-FAM on lower strand; blunt
Chain of Ku70/Ku80 heterodimer FL (baculovirus);PAXX (P12956 whole entry, chain 1 of 3): as the sequence (P12956 whole entry, chain 1 of 2) above
Chain of Ku70/Ku80 heterodimer FL (baculovirus);PAXX (P13010 1-718, chain 2 of 3): as the sequence (P13010 1-718, chain 2 of 2) above
Chain of Ku70/Ku80 heterodimer FL (baculovirus);PAXX (Q9BUH6 whole entry, chain 3 of 3): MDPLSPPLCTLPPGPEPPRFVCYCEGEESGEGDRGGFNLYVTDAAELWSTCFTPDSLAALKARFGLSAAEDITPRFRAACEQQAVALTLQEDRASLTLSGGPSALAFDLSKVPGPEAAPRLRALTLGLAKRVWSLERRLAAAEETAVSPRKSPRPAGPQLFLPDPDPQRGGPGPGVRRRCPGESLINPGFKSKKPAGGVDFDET

B1: LINP1 (1-300) (structured_RNA)
RNA: CCCUCCGUCUCCUUGACUCUGGGUGGGCUGUGUGACUUUUCCUUGCUCAAUAGAAUGAGAAGGAGGUGGCGCACCGGCUACAAGGCUAGACCGGGGGCUCGCAUAUCUCCACUUGCAGCUGCCACUGCCAUUAGAAGAACUUGCUCAGCCAGCUCCUGGGCCCCAGGAAAAGGACAAGUGUCACCCAGAACAGAGCCACCUCCAGCUGCACUCAGCUCCAGAAGCUGGCCCAGCCGGUCCAGUACACCUUUUAAAUAAUGUCCUCUACGUGCCGGUGUGGAAGUAGCCCGGAUGCAAUUG
[1]
  Kd: 1920 ± 330 nM

B2: SL2-BT (structured_RNA)
RNA: UGACUGGAGGAAGGAGUAUAGAAACUCUUCCUUUUGGCG
[2]; hairpin
  Kd: 6050 ± 9400 nM

B3: SL3-LM (structured_RNA)
RNA: AAGGCUAGACCGGGGGCUCGCAUUUCUUUUUUUGCAGCUGCCACUGCCA
[2]; hairpin
  Kd: 2370 ± 1040 nM

B4: SL3 (structured_RNA)
RNA: B3 RNA with U24A, U28C, U29C, U30A, U31C
[3]; hairpin with bulge
  binding result: binds
[2]; hairpin with bulge
  Kd: 840 ± 450 nM

B5: SL2 (structured_RNA)
RNA: UGACUUUUCCUUGCUCAAUAGAAUGAGAAGGAGGUGGCG
[3]; hairpin with bulge
  binding result: binds
Ku dCTR
  Kd: 1020 ± 180 nM
[2]; hairpin with bulge
  Kd: 900 ± 170 nM

B6: TERRA G-quadruplex (structured_RNA)
RNA: UAGGGUUAGGGU
[2]; G4 (multimeric)
  Kd: 430 ± 180 nM

B7: LINP1 GQ1 (structured_RNA)
RNA: CCUGGGGUAGGAGAGGGUAUGGGGACCAGGGCACU
[3]; G4
  binding result: binds
[2]; G4
  Kd: 110 ± 40 nM

B8: SL2-LM (structured_RNA)
RNA: UGACUUUUCCUUGCUCAUUUUUUUGAGAAGGAGGUGGCG
[2]; hairpin
  Kd: 1620 ± 470 nM

B9: d50 DNA (dsDNA)
DNA 1: CTCTTGGTGATTATGGTTGCAATACATTTAATTTCATTATCAATTAG
DNA 2: CTAATTGATAATGAAATTAAATGTATTGCAACCATAATCACCAAGAG
[4]
  Kd: 19 ± 19 nM

B10: Fork substrate (dsDNA)
DNA 1: CGCGCCCAGCTTTCCCAGCTAATAAACTAAAAACTCCTAAGG
DNA 2: CCTTAGGAGTTTTTAGTTTATTGGGCGCG
Ku5D
  Kd: ~15000 nM

B11: SL1 (structured_RNA)
RNA: CCCUCCGUCUCCUUGACUCUGGG
[2]; hairpin
  Kd: 1690 ± 700 nM

B12: DNA G-quadruplex (structured_DNA)
DNA: TTAGGGTTAGGGTTAGGGTTAGGG
[5]
  binding result: no binding

B13: 25bp duplex DNA (dsDNA)
DNA 1: AGCATTGACTGGCATCGTAGCATCC
DNA 2: GGATGCTACGATGCCAGTCAATGCT
[6]
  binding result: binds
[7]
  binding result: binds

B14: SL3-BT (structured_RNA)
RNA: AACCGUAGACCCCGUCGACCGUUAUCUCCACUACGUCGGGGGACUGGGA
[2]; hairpin
  Kd: 1870 ± 360 nM
